From US20050100554A1 (published 2005)

T1: EFEMP1 (human, UniProt Q12805 18-493)
T1 construct: also called cbe_2321057
T1 sequence: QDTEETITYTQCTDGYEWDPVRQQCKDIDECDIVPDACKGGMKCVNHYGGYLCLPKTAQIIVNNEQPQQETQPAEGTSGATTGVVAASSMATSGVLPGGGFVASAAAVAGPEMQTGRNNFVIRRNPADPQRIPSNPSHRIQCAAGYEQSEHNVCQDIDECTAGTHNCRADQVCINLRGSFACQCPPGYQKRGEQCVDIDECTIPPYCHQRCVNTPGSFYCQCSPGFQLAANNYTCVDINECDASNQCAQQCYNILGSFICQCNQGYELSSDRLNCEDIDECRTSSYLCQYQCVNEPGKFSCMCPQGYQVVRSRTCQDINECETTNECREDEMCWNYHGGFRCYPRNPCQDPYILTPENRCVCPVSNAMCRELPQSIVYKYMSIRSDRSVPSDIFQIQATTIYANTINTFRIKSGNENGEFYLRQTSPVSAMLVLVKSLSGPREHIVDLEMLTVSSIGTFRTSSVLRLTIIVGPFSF

T2: Human Papillomavirus 1a L2 (Human Papillomavirus 1a, UniProt P03105 1-507)
T2 construct: also called HPV 1a L2; cbe_252041
T2 sequence: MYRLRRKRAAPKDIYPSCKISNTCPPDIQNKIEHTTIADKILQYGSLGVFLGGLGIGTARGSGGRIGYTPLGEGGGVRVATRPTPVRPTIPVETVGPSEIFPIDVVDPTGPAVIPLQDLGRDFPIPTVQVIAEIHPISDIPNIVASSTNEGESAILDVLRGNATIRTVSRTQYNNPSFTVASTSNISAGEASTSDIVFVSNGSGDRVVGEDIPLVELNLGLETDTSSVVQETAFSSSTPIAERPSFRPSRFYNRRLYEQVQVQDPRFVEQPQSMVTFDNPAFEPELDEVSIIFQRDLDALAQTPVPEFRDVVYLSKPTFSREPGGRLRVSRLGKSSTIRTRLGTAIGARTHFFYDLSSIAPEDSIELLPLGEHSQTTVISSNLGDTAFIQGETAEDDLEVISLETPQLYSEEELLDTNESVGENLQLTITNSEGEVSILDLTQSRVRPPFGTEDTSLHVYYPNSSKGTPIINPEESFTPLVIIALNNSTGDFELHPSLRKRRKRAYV

T3: STX4A (human, UniProt Q12846 1-297)
T3 construct: also called syntaxin 4; cbe_4270186
T3 sequence: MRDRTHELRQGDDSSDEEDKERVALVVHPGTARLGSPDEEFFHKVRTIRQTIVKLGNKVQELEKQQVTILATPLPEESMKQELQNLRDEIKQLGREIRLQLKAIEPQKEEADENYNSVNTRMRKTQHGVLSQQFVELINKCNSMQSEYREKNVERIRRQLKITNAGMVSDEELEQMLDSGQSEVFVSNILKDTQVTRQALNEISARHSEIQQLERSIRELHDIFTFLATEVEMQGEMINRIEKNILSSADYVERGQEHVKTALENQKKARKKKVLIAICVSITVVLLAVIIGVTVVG

T4: MPP3 (human, UniProt Q13368 1-585)
T4 construct: also called cbe_3921620
T4 sequence: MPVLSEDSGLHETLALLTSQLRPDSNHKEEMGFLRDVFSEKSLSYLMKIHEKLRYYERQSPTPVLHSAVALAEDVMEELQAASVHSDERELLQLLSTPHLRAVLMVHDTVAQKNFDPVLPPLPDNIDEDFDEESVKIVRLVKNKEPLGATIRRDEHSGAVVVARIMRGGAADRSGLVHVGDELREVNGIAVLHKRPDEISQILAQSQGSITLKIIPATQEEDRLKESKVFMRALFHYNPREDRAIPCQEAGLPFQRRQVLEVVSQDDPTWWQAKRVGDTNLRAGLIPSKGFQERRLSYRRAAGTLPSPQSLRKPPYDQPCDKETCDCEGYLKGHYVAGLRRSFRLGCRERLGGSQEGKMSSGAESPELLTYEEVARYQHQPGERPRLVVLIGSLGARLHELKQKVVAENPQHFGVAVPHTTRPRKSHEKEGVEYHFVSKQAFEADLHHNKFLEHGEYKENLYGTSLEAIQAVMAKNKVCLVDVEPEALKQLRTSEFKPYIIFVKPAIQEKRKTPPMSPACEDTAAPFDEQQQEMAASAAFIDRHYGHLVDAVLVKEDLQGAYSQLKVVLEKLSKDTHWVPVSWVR

T5: tissue factor pathway inhibitor (lipoprotein-associated coagulation inhibitor) (human, UniProt P10646 29-304)
T5 construct: also called TFPI; cbe_3834015
T5 sequence: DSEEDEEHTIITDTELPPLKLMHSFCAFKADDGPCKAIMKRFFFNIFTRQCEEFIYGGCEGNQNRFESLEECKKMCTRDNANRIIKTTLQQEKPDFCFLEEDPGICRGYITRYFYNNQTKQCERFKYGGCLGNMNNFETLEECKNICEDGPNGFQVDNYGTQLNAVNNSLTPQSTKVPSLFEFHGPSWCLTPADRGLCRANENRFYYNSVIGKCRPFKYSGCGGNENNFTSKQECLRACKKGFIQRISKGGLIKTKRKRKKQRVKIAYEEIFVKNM

T6: PTPN21 (human, UniProt Q16825 1-1174)
T6 construct: also called cbe_4260642
T6 sequence: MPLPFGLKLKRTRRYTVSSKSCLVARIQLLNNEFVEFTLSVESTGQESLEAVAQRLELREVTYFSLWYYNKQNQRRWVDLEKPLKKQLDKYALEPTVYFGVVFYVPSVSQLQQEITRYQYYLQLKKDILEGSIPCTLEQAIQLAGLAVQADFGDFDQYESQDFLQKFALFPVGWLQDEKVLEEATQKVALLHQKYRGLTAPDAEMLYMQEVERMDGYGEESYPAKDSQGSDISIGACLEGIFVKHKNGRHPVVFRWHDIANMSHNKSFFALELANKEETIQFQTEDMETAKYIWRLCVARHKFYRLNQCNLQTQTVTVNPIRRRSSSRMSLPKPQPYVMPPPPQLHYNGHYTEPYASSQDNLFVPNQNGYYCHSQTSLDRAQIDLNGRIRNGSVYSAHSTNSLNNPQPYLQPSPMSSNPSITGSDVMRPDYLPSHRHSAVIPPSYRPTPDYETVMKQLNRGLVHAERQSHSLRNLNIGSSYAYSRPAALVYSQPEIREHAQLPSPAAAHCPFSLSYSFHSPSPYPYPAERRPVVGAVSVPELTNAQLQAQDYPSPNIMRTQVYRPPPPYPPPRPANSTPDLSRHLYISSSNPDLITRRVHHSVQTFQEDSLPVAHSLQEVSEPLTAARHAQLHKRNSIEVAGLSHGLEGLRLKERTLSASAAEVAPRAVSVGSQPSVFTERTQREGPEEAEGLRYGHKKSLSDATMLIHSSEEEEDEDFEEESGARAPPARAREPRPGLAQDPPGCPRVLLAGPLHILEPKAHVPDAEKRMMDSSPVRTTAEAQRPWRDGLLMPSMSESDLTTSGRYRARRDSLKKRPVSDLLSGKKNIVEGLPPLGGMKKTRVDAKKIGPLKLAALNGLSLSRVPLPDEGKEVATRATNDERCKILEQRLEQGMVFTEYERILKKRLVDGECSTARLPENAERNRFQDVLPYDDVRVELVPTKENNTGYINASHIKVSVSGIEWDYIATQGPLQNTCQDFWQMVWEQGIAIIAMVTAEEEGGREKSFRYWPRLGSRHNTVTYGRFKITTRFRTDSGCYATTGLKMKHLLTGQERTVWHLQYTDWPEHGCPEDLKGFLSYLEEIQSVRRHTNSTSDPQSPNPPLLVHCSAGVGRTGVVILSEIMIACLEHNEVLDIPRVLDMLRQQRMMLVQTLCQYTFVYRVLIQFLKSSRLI

B1: Human papillomavirus 16 E2 (other)
chain: METLCQRLNVCQDKILTHYENDSTDLRDHIDYWKHMRLECAIYYKAREMGFKHINHQVVPTLAVSKNKALQAIELQLTLETIYNSQYSNEKWTLQDVSLEVYLTAPTGCIKKHGYTVEVQFDGDICNTMHYTNWTHIYICEEASVTVVEGQVDYYGLYYVHEGIRTYFVQFKDDAEKYSKNKVWEVHAGGQVILCPTSVFSSNEVSSPEIIRQHLANHPAATHTKAVALGTEETQTTIQRPRSEPDTGNPCHTTKLLHRDSVDSAPILTAFNSSHKGRINCNSNTTPIVHLKGDANTLKCLRYRFKKHCTLYTAVSSTWHWTGHNVKHKSAIVTLTYDSEWQRDQFLSQVKIPKTITVSTGFMSI
notes: also called HPV 16 E2; cbe_251088
B2: DAD1 (other)
chain: SASVVSVISRFLEEYLSSTPQRLKLLDAYLLYILLTGALQFGYCLLVGTFPFNSFLSGFISCVGSFILAVCLRIQINPQNKADFQGISPERAFADFLFASTILHLVVMNFVG
notes: also called cbe_4268208
B3: soggy-1 gene (other)
chain: APIHDADAQESSLGLTGLQSLLQGFSRLFLKGNLLRGIDSLFSAPMDFRGLPGNYHKEENQEHQLGNNTLSSHLQIDKMTDNKTGEVLISENVVASIQPAEGSFEGDLKVPRMEEKEALVPIQKATDSFHTELHPRVAFWIIKLPRRRSHQDALEGGHWLSEKRHRLQAIRDGLRKGTHKDVLEEGTESSSHSRLSPRKTHLLYILRPSRQL
notes: also called DKKL1-pending; cbe_4279962
B4: Human papillomavirus 16 E7 (other)
chain: MHGDTPTLHEYMLDLQPETTDLYCYEQLNDSSEEEDEIDGPAGQAEPDRAHYNIVTFCCKCDSTLRLCVQSTHVDIRTLEDLLMGTLGIVCPICSQKP
notes: also called HPV 16 E7; HPV16 E7
B5: eukaryotic translation elongation factor 1 alpha 1-like 14 (other)
chain: MQSERGITIDISLWKFETSKYYVTIIDAPGHRDFIQNMITGTSQADCAVLIVAAGVGEFEAGISKNGQTREHALLAYTLGVKQLIVGVNKMDSTEPPYSQKRYEEIVKEVSTYIKKIGYNPDTVAFVPISGWNGDNMLEPSANMPWFKGWKVTRKDGNASGTTLLEALDCILPPTRPTDKPLGLPLQDVYKIGGIGTVPVGRVETGVLKPGMVVTFGPVNVTTEVKSVEMHHEALGEALPGDNVGFNVKNVSVKDVRRGNVAGDSKNDPPMEAAGFPAQVIILNHPGQISAGYAPVLDCHTAHIACKFAELKEKIDRRSGKKLEDGPKFLKSGDAAIVDMVPGKPMCVESFSDYPPLGCFAVRDMRQTVAVGVIKAVDKKAAGAGKVTKSAQKAQKAK
notes: also called EEF1A1L14; cbe_3773649

Key:
EFEMP1 = biological target: T1, EFEMP1; assay: Y2H; INT ID 147
[1] = biological target: T2, Human Papillomavirus 1a L2; assay: Y2H; INT ID 146
[2] = biological target: B1; assay: Y2H; INT ID 150
[3] = biological target: B1; assay: Y2H; INT ID 151
STX4A = biological target: T3, STX4A; assay: Y2H; INT ID 181
MPP3 = biological target: T4, MPP3; assay: Y2H; INT ID 173
[4] = biological target: T5, tissue factor pathway inhibitor …; assay: Y2H; INT ID 172
keratin 4 = biological target: T7, keratin 4 (human, UniProt P19013 1-520); assay: Y2H; INT ID 168
T7 construct: also called KRT4; cbe_3474077

PTPN21 = biological target: T6, PTPN21; assay: Y2H; INT ID 174
PSMC1 = biological target: T8, PSMC1 (human, UniProt P62191 2-440); assay: Y2H; INT ID 179
T8 construct: also called proteosome 26S subunit; proteosome subunit PMSC1

NDUFS3 = biological target: T9, NDUFS3 (human, UniProt O75489 37-264); assay: Y2H; INT ID 176
T9 construct: also called cbe_4268611

[5] = biological target: T10, zinc finger protein ZNF140-like protein (human, UniProt Q9NR11 1-478); assay: Y2H; INT ID 170
T10 construct: also called LOC55828; cbe_3787129

[6] = biological target: B4; assay: Y2H; INT ID 169

T8 sequence (P62191 2-440 limits assumed): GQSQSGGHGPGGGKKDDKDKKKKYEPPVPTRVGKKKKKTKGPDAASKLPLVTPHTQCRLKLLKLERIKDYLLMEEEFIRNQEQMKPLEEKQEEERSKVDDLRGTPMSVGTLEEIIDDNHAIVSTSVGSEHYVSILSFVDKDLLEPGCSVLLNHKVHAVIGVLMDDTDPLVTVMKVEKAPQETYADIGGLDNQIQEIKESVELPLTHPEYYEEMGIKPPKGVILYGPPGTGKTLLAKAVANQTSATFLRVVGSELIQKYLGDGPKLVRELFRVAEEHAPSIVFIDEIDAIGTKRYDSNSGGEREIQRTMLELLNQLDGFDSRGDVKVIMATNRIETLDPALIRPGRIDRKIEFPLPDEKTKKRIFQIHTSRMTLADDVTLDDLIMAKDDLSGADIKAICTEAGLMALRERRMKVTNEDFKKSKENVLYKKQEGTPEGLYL
T9 sequence (O75489 37-264 limits assumed): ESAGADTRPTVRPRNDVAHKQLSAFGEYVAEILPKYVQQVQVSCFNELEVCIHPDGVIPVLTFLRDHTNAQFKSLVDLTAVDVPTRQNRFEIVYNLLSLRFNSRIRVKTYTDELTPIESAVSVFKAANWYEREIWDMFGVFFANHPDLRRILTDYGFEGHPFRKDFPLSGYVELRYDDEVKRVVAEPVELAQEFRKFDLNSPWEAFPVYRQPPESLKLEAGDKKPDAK
T7 sequence (P19013 other isoform, or with tags, fused parts or gaps limits assumed): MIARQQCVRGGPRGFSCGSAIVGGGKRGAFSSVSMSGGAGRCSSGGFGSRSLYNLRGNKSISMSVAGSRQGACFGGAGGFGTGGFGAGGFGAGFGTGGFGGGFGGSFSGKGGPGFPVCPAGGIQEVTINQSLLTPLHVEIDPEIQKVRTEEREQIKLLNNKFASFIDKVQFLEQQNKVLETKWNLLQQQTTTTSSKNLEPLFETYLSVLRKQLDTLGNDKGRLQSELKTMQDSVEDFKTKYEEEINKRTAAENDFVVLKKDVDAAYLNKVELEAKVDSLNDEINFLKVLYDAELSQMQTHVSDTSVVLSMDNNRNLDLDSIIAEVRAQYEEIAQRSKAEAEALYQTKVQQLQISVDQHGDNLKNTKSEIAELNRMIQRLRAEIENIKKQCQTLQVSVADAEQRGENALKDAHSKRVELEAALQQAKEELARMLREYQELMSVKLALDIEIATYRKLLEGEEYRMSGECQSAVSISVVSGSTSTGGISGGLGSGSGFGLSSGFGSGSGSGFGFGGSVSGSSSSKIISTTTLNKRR
T10 sequence (Q9NR11 whole entry): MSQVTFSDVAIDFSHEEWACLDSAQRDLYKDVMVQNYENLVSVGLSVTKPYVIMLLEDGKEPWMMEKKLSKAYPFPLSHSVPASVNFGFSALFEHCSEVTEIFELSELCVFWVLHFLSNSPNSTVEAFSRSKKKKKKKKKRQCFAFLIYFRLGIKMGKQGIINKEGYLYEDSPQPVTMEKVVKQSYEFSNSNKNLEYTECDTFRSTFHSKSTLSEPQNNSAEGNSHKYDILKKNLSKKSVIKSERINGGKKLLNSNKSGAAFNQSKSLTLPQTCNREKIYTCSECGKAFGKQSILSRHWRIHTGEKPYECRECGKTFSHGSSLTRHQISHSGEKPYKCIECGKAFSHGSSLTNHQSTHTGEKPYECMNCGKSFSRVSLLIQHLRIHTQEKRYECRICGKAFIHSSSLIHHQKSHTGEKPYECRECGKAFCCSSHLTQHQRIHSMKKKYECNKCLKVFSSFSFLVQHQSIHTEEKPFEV

Binder: B1
- binding result (EFEMP1): binds
- binding result [1]: binds

Binder: B2
- binding result [2]: binds

Binder: B3
- binding result [3]: binds

Binder: B4
- binding result (STX4A): binds
- binding result (MPP3): binds
- binding result [4]: binds
- binding result (keratin 4): binds
- binding result (PTPN21): binds
- binding result (PSMC1): binds
- binding result (NDUFS3): binds
- binding result [5]: binds

Binder: B5
- binding result [6]: binds
